The target in experiment [1] is T1, fibroblast growth factor 19 (FGF19), full-length (human, UniProt O95750, biotin (where co-transfected with BirA biotin-protein ligase)). In words: SPR. For orientation: Surface plasmon resonance follows binding to a sensor surface in real time, without labels.
Experiment [2] deals with T1, fibroblast growth factor 19 (FGF19), …. Nature of the experiment: ELISA. Background: An ELISA detects its analyte on a solid surface through an enzyme-linked reagent.

Results on three molecules are retold here after PMC7226213 (Cancer Science, 2020).

Numbering of substitutions follows the chain as printed.

As a reminder, the IC50 is the point on the concentration scale where inhibition reaches its midpoint. Read a low IC50 as higher potency.

T1 sequence (O95750 25-216): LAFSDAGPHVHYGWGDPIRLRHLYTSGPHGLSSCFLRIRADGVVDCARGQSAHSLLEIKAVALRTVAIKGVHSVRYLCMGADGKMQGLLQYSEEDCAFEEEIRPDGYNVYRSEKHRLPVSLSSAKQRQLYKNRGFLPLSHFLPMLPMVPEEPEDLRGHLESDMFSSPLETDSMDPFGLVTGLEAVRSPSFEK

B1: 31A3, human IgG1 Ab (antibody, V domains shown)
VH: not shown
VL: QAGLTQPASVSGSPGQSITISCTGTSSDVGGYNYVSWYQQHPGKAPKLMIYDVSNRPSGVSDRFSGSKSGNTASLTISGLQTEDEADYYCSSYTRSSTLVFGGGTQLTVL
Take B1: in experiment [1], the binding result is recorded as “binds”.

B2: G1A8-Fab (Fab, V domains shown)
VH: not shown
VL: B1 VL with Y93W, T98G
Consider B2, for which the IC50 in experiment [2] was 1.39 nM.

B3: G1A8, human IgG1 Ab (antibody, V domains shown)
VH: not shown
VL: B1 VL with Y93W, T98G
For B3, in experiment [1], the “fold increase of affinity over 31A3” value was determined as 27 fold and the “fold slower dissociation rate than 31A3” value was 60 fold.
